Numbering of substitutions follows the chain as printed.
T1: human GIP receptor (human) (UniProt P48546)
T1 sequence (looked up): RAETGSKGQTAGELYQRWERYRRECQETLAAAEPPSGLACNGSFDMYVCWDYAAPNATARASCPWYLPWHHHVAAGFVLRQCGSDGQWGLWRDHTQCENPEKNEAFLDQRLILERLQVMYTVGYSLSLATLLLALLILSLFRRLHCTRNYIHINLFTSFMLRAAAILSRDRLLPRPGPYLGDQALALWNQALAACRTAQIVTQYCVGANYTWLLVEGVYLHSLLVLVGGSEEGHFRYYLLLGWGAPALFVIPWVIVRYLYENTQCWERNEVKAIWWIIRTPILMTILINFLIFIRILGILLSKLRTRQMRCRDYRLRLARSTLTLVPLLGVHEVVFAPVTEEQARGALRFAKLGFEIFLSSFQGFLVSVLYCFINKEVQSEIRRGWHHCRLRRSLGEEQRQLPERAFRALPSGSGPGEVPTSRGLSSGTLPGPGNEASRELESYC

B1: Example 1211 (peptide)
chain: YXQGTXTSDXXIXLDXXAQXEFIEXLIEGGPSSGAPPPSGS
modifications: synthetic construct; SITE 2: note = 2-Aminoisobutyric Acid; SITE 6: note = alpha-methyl-2-fluoro-L-phenylalanine; SITE 10: note = 3-(4-Pyridyl)-L-alanine; SITE 11: note = alpha-methyl-L-serine; SITE 13: note = alpha-methyl-leucine; SITE 16: note = L-ornithine; SITE 17: note = Ornithine is chemically
B2: Example 1196 (peptide)
chain: YXQGTXTSDXXIXLDXKAQXEFIEXLIEGGPPSXXPPPXSE
modifications: non-natural residues; lipidated Lys AEEA-γGlu-C18 diacid; C-term amide; synthetic construct; SITE 2: note = 2-Aminoisobutyric Acid; SITE 6: note = alpha-methyl-2-fluoro-L-phenylalanine; SITE 10: note = 3-(4-Pyridyl)-L-alanine; SITE 11: note = alpha-methyl-L-serine; SITE 13: note = alpha-methyl-leucine; SITE 16: note = L-ornithine; SITE 17: note = Lysine is chemically mo
B3: Example 1190 (peptide)
chain: B2 chain with X35E, X39E, S40G
modifications: non-natural residues, acylated Lys, C-terminal amide; synthetic construct; SITE 2: note = 2-Aminoisobutyric Acid; SITE 6: note = alpha-methyl-2-fluoro-L-phenylalanine; SITE 10: note = 3-(4-Pyridyl)-L-alanine; SITE 11: note = alpha-methyl-L-serine; SITE 13: note = alpha-methyl-leucine; SITE 16: note = L-ornithine; SITE 17: note = Lysine is chemically mo
B4: Example 1208 (peptide)
chain: B1 chain with X17K, A35E
modifications: not fully specified; synthetic construct; SITE 2: note = 2-Aminoisobutyric Acid; SITE 6: note = alpha-methyl-2-fluoro-L-phenylalanine; SITE 10: note = 3-(4-Pyridyl)-L-alanine; SITE 11: note = alpha-methyl-L-serine; SITE 13: note = alpha-methyl-leucine; SITE 16: note = L-ornithine; SITE 17: note = Lysine is chemically mo
B5: Example 1191 (peptide)
chain: B2 chain with X34G, X35E, X39E, S40G
modifications: non-natural residues; lipidated Lys AEEA-γGlu-C18 diacid; C-term amide; synthetic construct; SITE 2: note = 2-Aminoisobutyric Acid; SITE 6: note = alpha-methyl-2-fluoro-L-phenylalanine; SITE 10: note = 3-(4-Pyridyl)-L-alanine; SITE 11: note = alpha-methyl-L-serine; SITE 13: note = alpha-methyl-leucine; SITE 16: note = L-ornithine; SITE 17: note = Lysine is chemically mo
B6: Example 1203 (peptide)
chain: B1 chain with G4A, X17K
modifications: synthetic construct; SITE 2: note = 2-Aminoisobutyric Acid; SITE 4: note = D-amino acid; SITE 6: note = alpha-methyl-2-fluoro-L-phenylalanine; SITE 10: note = 3-(4-Pyridyl)-L-alanine; SITE 11: note = alpha-methyl-L-serine; SITE 13: note = alpha-methyl-leucine; SITE 16: note = L-ornithine; SITE 17: n
B7: Example 1182 (peptide)
chain: YXQGTFTSDXXQXLDXKAQXQFIEXLIAXGPSSGEPPPSGGGE
modifications: non-natural residues; lysine acylated with C18 diacid; C-terminal amide; synthetic construct; SITE 2: note = 2-Aminoisobutyric Acid; SITE 10: note = 3-(4-Pyridyl)-L-alanine; SITE 11: note = alpha-methyl-L-serine; SITE 13: note = alpha-methyl-leucine; SITE 16: note = L-ornithine; SITE 17: note = Lysine is chemically modified through conjugation of the epsilon-amino group
B8: Example 1186 (peptide)
chain: B7 chain with E24Q, A28E, E35A
modifications: not fully specified; Aib, 4Pal, Me4Pal, alpha-methyl residues, Orn, lipidated Lys, amide; synthetic construct; SITE 2: note = 2-Aminoisobutyric Acid; SITE 10: note = 3-(4-Pyridyl)-L-alanine; SITE 11: note = alpha-methyl-L-serine; SITE 13: note = alpha-methyl-leucine; SITE 16: note = L-ornithine; SITE 17: note = Lysine is chemically modified through conjugation of the epsilon-amino group
B9: Example 1185 (peptide)
chain: B7 chain with E35A
modifications: not fully specified; non-natural residues; Lys acylated with γGlu-C18 diacid; C-terminal amide; synthetic construct; SITE 2: note = 2-Aminoisobutyric Acid; SITE 10: note = 3-(4-Pyridyl)-L-alanine; SITE 11: note = alpha-methyl-L-serine; SITE 13: note = alpha-methyl-leucine; SITE 16: note = L-ornithine; SITE 17: note = Lysine is chemically modified through conjugation of the epsilon-amino group
B10: Example 1184 (peptide)
chain: B7 chain with A28E
modifications: non-natural residues; Lys acylated with γGlu-C18 diacid; C-terminal amide; synthetic construct; SITE 2: note = 2-Aminoisobutyric Acid; SITE 10: note = 3-(4-Pyridyl)-L-alanine; SITE 11: note = alpha-methyl-L-serine; SITE 13: note = alpha-methyl-leucine; SITE 16: note = L-ornithine; SITE 17: note = Lysine is chemically modified through conjugation of the epsilon-amino group
B11: Example 1188 (peptide)
chain: B7 chain with E24Q, A28E, X29G
modifications: not fully specified; non-natural residues, lipidated Lys, C-terminal amide; synthetic construct; SITE 2: note = 2-Aminoisobutyric Acid; SITE 10: note = 3-(4-Pyridyl)-L-alanine; SITE 11: note = alpha-methyl-L-serine; SITE 13: note = alpha-methyl-leucine; SITE 16: note = L-ornithine; SITE 17: note = Lysine is chemically modified through conjugation of the epsilon-amino group
B12: Example 1187 (peptide)
chain: B7 chain with A28E, E35A
modifications: not fully specified; acylated lysine γGlu-C18 diacid; non-natural residues; C-terminal amide; synthetic construct; SITE 2: note = 2-Aminoisobutyric Acid; SITE 10: note = 3-(4-Pyridyl)-L-alanine; SITE 11: note = alpha-methyl-L-serine; SITE 13: note = alpha-methyl-leucine; SITE 16: note = L-ornithine; SITE 17: note = Lysine is chemically modified through conjugation of the epsilon-amino group
B13: Example 1183 (peptide)
chain: B7 chain with E24Q, A28E
modifications: non-natural residues; lipidated Lys; C-terminal amide; synthetic construct; SITE 2: note = 2-Aminoisobutyric Acid; SITE 10: note = 3-(4-Pyridyl)-L-alanine; SITE 11: note = alpha-methyl-L-serine; SITE 13: note = alpha-methyl-leucine; SITE 16: note = L-ornithine; SITE 17: note = Lysine is chemically modified through conjugation of the epsilon-amino group
B14: Example 1209 (peptide)
chain: YXQGTXTSDXSIXLDXXAQXXFIEXLIEGGPSSGEPPPETE
modifications: synthetic construct; SITE 2: note = 2-Aminoisobutyric Acid; SITE 6: note = alpha-methyl-2-fluoro-L-phenylalanine; SITE 10: note = 3-(4-Pyridyl)-L-alanine; SITE 13: note = alpha-methyl-leucine; SITE 16: note = L-ornithine; SITE 17: note = Ornithine is chemically modified through conjugation of the ep

What was measured:
Experiment in all cases: cell-based or functional assay
[1] = biological target: hGLP-1R (Homo sapiens, UniProt P43220)
hGLP-1R, sequence (P43220 24-463): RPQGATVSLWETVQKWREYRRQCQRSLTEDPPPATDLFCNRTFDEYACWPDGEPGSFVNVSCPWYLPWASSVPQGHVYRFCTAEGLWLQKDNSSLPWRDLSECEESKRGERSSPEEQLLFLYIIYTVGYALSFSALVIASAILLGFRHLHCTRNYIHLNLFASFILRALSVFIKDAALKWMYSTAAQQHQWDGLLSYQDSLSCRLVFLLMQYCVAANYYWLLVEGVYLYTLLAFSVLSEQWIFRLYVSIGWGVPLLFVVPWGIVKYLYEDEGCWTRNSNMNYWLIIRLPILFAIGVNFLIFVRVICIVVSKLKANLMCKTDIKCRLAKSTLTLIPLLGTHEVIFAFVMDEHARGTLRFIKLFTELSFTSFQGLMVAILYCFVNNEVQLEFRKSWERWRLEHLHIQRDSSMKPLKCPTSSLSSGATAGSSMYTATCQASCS

[2] = biological target: T1, human GIP receptor (human)
[3] = biological target: human glucagon receptor (human) (UniProt P47871)
human glucagon receptor (human), sequence (P47871 26-477): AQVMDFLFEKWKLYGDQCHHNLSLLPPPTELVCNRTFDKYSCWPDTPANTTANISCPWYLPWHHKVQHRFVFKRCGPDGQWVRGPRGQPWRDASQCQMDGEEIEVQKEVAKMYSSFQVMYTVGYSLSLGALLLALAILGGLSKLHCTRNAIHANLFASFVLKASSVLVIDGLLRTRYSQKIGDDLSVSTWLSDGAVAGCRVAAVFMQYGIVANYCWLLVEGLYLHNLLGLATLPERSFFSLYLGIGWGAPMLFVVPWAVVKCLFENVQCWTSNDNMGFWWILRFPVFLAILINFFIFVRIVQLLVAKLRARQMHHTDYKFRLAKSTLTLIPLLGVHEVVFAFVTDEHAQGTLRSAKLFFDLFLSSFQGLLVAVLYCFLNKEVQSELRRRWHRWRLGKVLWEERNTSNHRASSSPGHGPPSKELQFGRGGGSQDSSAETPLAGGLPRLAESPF

Binder	Relative cAMP EC50 [1]	cAMP Rel EC50 (1% HSA) [1]	Relative cAMP EC50 [2]	cAMP Rel EC50 (1% HSA) [2]	Relative cAMP EC50 [3]	cAMP Rel EC50 (1% HSA) [3]	cAMP Rel EC50 (in the presence of 1% HSA) [1]	cAMP Rel EC50 (in the presence of 1% HSA) [2]	cAMP Rel EC50 (in the presence of 1% HSA) [3]
B1	0.276 nM	33.2 nM	0.00592 nM	0.489 nM	1.45 nM	211 nM			
B2	0.418 nM		0.00756 nM		1.9 nM		45.4 nM	0.605 nM	257 nM
B3	0.765 nM		0.0109 nM		1.68 nM		77.4 nM	0.954 nM	192 nM
B4	0.526 nM	44.8 nM	0.00907 nM	0.786 nM	3.52 nM	451 nM			
B5	0.945 nM		0.00992 nM		3.06 nM		82.3 nM	0.931 nM	243 nM
B6	0.292 nM	38.9 nM	0.0774 nM	8.5 nM	2.58 nM	436 nM			
B7	0.797 nM		0.0316 nM		1.24 nM		80.4 nM	2.73 nM	172 nM
B8	0.594 nM		0.0404 nM		1.46 nM		52.1 nM	3.17 nM	164 nM
B9	0.762 nM		0.0266 nM		1.64 nM		66.1 nM	2.31 nM	206 nM
B10	1.18 nM		0.071 nM		1.5 nM		179 nM	8.39 nM	295 nM
B11	1.01 nM		0.0914 nM		1.16 nM		77.1 nM	7.02 nM	130 nM
B12	1.06 nM		0.0648 nM		1.81 nM		154 nM	7.11 nM	370 nM
B13	0.769 nM		0.0484 nM		1.38 nM		53.6 nM	3.16 nM	127 nM
B14	0.41 nM	37.7 nM	0.00819 nM	0.565 nM	0.97 nM	124 nM			

From patent publication US20240270821A1, “GIP/GLP1/GCG TRI-RECEPTOR AGONISTS AND USES THEREOF” (priority 2023, published 2024)
